The record followed here is PMC4416878.

Assay [1] has as its target Golgi anti-apoptotic protein (GAAP) from camelpox virus, wild type, purified (camelpox virus (CMLV)). The experiment in a line: SEC.
Assay [2] addresses Golgi anti-apoptotic protein (GAAP) from vaccinia virus strain Evans, purified (vaccinia virus (VACV) strain Evans). The experiment in a line: SEC.

On to “Golgi anti-apoptotic protein (GAAP) from camelpox virus, wild type, purified (natural protein)”, for which, in assay [1], the percent of protein oligomeric came to 84% and the percent of total protein in oligomeric states (% of total protein) worked out at 87.

“Golgi anti-apoptotic protein (GAAP) from vaccinia virus strain Evans, purified (natural protein)”: in assay [2], the percent of total protein in oligomeric states (% of total protein) was 64.
